Each block holds one substance with its values, some of them ahead of it.
What was measured:
[1] = molecular target: MtrR, endogenous in M. mazei (Methanosarcina mazei (endogenous in M. mazei)); test: western blot of the strep-tactin eluate
[2] = molecular target: strep-tagged soluble domain of the MtrA subunit (M1 - S168), RED labeled (Methanosarcina mazei) (UniProt O59640); test: MST
[3] = molecular target: MtrR-His6 constitutively expressed in M. mazei (pRS2087) (Methanosarcina mazei Gö1); test: IMAC purification and western blot

UniProt O59640, sequence (O59640 1-168): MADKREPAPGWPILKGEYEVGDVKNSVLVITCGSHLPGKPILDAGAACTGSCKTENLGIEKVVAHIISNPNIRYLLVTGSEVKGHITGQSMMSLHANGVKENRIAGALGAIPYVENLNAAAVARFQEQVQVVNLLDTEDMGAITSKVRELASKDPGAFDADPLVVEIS

- stoichiometry N [1]: 2
Substance: MtrR, endogenous in M. mazei (natural protein)

- Kd [2]: 110 nM
Substance: MtrR-His6 (small protein MtrR encoded by small ORF16, C-terminal his-tag), heterologously expressed in E. coli (natural protein)

- stoichiometry N [3]: 2
Substance: MtrR-His6 constitutively expressed in M. mazei (pRS2087) (natural protein)

— article doi:10.1101/2025.05.30.657017
